Results on one molecule are retold here after patent US20100098696A1 (Eli Lilly, published 2010).

Where two headings read alike, the source gives them in different places.

Test [1] concerns the target T1, Human FGFR-3(IIIb) (human, UniProt P22607-2 23-377, limits assumed).
T1 construct: The construct in the BiaCore experiment is not described; it is probably recombinant ECD-Fc; also called b-splice form of human FGFR-3
T1 sequence (looked up): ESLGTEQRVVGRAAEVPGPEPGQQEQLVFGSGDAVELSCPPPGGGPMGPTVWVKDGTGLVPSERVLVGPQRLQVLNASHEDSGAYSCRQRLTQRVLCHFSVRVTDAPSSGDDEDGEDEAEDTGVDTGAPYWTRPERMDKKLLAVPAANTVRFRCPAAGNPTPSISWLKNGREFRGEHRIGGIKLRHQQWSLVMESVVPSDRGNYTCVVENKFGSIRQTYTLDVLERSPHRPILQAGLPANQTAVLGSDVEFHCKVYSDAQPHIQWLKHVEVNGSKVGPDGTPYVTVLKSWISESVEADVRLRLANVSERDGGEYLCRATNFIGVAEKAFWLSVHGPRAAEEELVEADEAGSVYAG
Briefly: BiaCore 3000 SPR, room temperature. For orientation: Surface plasmon resonance follows binding to a sensor surface in real time, without labels.

In test [2] the target is T2, FGFR-3(IIIb) truncate D1 (25-148)-Fc (human, UniProt P22607 25-148).
T2 construct: range 25-148; Homodimeric Fc fusion; not shown: human Fc tag of the pGS-Fc vector
T2 sequence: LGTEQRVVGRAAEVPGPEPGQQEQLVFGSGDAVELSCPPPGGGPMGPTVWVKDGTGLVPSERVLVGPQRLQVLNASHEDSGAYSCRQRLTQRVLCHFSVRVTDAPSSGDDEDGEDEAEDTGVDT
Briefly: Mesoscale binding assay and BIAcore.

Test [3] has as its target T3, FGFR-3(IIIb) truncate D3 (250-372)-Fc (human, UniProt P22607-2 250-372).
T3 construct: range 250-372; Homodimeric Fc fusion; not shown: human Fc tag of the pGS-Fc vector
T3 sequence (looked up): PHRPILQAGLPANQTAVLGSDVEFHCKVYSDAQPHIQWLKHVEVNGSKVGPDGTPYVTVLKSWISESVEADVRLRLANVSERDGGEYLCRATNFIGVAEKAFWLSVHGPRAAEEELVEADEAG
The test is described as follows: Mesoscale binding assay and BIAcore.

Test [4] concerns the target T1, Human FGFR-3(IIIb). Briefly: BiaCore 3000 SPR, room temperature. The source holds these as a separate data set.
For test [5], the target named is T4, FGFR-3(IIIb) or (IIIc) ECD (extracellular domain) Fc tagged soluble recombinant protein (human, UniProt P22607 23-375).
T4 construct: extracellular domain; also called recombinant human FGFR-Fc; not shown: Fc tag
T4 sequence (looked up): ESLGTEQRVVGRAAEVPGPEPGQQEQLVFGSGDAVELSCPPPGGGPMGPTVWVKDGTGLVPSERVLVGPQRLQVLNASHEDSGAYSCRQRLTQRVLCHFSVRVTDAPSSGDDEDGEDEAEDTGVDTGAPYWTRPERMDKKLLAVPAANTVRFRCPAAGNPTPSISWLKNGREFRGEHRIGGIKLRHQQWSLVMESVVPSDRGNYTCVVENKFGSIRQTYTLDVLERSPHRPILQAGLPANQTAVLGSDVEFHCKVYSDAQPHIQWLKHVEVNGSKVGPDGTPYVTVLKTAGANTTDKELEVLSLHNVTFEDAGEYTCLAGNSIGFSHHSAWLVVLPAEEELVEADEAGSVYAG
The test is described as follows: ELISA blocking assay: FGFR-3 ECD-Fc (1 µg/ml) with antibody dilutions on FGF-1 coated plates; lower end of the range. From the text: (§1) Wash plates 3 times with 0.2% Tween20/PBS. […] Blocking activities lead to decreased signals.
(In general: An ELISA detects its analyte on a solid surface through an enzyme-linked reagent.)

Test [6] concerns the target T4, FGFR-3(IIIb) or (IIIc) ECD …. The test is described as follows: ELISA blocking assay: FGFR-3 ECD-Fc (1 µg/ml) with antibody dilutions on FGF-1 coated plates; upper end of the range.
Source text: as §1

B1: Antibody 1 (antibody, human IgG1, lambda)
heavy: not shown
light: QSVLTQPPSLSVAPGKTATFTCGGNNIGDKSVHWYRQKPGQAPVLVMYLDTERPSGIPERMSGSNFGNTATLTITRVEAEDEADYYCQVWDSGSDHVVFGGGTKLTVLGQPKAAPSVTLFPPSSEELQANKATLVCLISDFYPGAVTVAWKADSSPVKAGVETTTPSKQSNNKYAASSYLSLTPEQWKSHRSYSCQVTHEGSTVEKTVAPAECS
notes: Human IgG1 from a naive human Fab phage library; It was ruthenium-labelled in the Mesoscale assay and Alexa Fluor-labelled in the internalisation assay; also called FGFR-3 antibody antagonist
Usually Kd stands for a measure of binding affinity in units of concentration. Read a low Kd as a tighter complex. The term IC50 denotes the concentration that gives 50% inhibition. Consider B1, for which the Kd in the test with Human FGFR-3(IIIb) [1] was found to be 1 nM; with Human FGFR-3(IIIb) [4] it was 0.72 nM. Besides, the binding result in test [2] and in test [3] was “no binding (tested: 250-0.001 nM dilution series)” in each case. Further, the IC50 in test [5] is not below 1 nM; in test [6], not above 10 nM.
